Sequences and labels used below:
T1: human Nectin-4 extracellular antigen hNectin-4-His (human, UniProt Q96NY8 32-349)
T1 construct: C-terminal 8xHis tag included
T1 sequence: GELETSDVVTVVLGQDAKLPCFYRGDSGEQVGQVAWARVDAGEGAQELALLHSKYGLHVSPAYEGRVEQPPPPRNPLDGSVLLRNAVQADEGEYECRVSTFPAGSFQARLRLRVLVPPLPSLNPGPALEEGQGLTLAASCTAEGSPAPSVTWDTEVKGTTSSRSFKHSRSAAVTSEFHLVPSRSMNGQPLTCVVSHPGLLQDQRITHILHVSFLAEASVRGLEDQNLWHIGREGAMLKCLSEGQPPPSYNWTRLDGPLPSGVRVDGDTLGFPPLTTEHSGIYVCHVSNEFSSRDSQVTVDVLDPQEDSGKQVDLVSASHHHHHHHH

B1: antibody 1F3-1H3 (antibody, human IgG1, kappa, V domains shown)
VH: EVQLVESGGGLVQPGGSLRLSCAASGFNFYNYGMSWVRQAPGKGLEWVSGIKPHSDVAHYADSVKGRFTISRDNSKNTLYLQMNSLRAEDTAVYYCARAELLAFDVYTASDYWGQGTLVTVSS
VL: DIQMTQSPSSLSASVGDRVTITCRASQGISSYLAWYQQKPGKAPKLLIYAASSLQSGVPSRFSGSGSGTDFTLTISSLQPEDFATYYCQQHYTTPPTFGQGTKVEIKR
B2: antibody 1G8-2B3 (antibody, human IgG1, kappa, V domains shown)
VH: EVQLVESGGGLVQPGGSLRLSCAASGYNFTTSAMSWVRQAPGKGLEWVSRIYQDSSTTDYADSVKGRFTISRDNSKNTLYLQMNSLRAEDTAVYYCARQTEDRSYGYDLDYWGQGTLVTVSS
VL: B1 VL
B3: antibody 1G8-2C6 (antibody, human IgG1, kappa, V domains shown)
VH: B2 VH with Y27D, T30S, T31S, S32Y, Q53G, D54S, S55D, T58P
VL: B1 VL
B4: antibody 10F4-1G7 (antibody, human IgG1, kappa, V domains shown)
VH: EVQLVESGGGLVQPGGSLRLSCAASGYNFGDYDMSWVRQAPGKGLEWVSSIIGHGDTKFYADSVKGRFTISRDNSKNTLYLQMNSLRAEDTAVYYCAREYSDVVDYVSVRTPLDYWGQGTLVTVSS
VL: B1 VL
B5: antibody 1G8-2G8 (antibody, human IgG1, kappa, V domains shown)
VH: B2 VH with Y27F, T31N, S32Y, Y52S, Q53T, D54Y, S55G, S56D, D59H
VL: B1 VL
B6: antibody 1G8-1G3 (antibody, human IgG1, kappa, V domains shown)
VH: B2 VH with Y27F, T30G, S32Y, Y52S, Q53G, D54I, S56A, T57G, D59N
VL: B1 VL
B7: antibody 10F4-1F8 (antibody, human IgG1, kappa, V domains shown)
VH: B4 VH with N28T, G30T, G53T, H54D, D56G, T57G, K58A
VL: B1 VL
B8: antibody 1F3-1A9 (antibody, human IgG1, kappa, V domains shown)
VH: EVQLVESGGGLVQPGGSLRLSCAASGYSFDNYAMSWVRQAPGKGLEWVSRISPTGGYASYADSVKGRFTISRDNSKNTLYLQMNSLRAEDTAVYYCARAELLAFDVYTASDYWGQGTLVTVSS
VL: B1 VL
B9: antibody 1G8-2F2 (antibody, human IgG1, kappa, V domains shown)
VH: EVQLVESGGGLVQPGGSLRLSCAASGDIFGSYAMSWVRQAPGKGLEWVSRISSHGASRDYADSVKGRFTISRDNSKNTLYLQMNSLRAEDTAVYYCARQTEDRSYGYDLDYWGQGTLVTVSS
VL: B1 VL
B10: antibody 1F3-2B9 (antibody, human IgG1, kappa, V domains shown)
VH: B1 VH with Y30D, N31S, G33A, S55T, V57D, A58I, H59Y
VL: B1 VL
B11: antibody 1F3-1G7 (antibody, human IgG1, kappa, V domains shown)
VH: B1 VH with F27D, N28I, Y30S, G33S, K52Y, H54S, S55G, V57S, A58R, H59R
VL: B1 VL
B12: antibody 10F4-1C3 (antibody, human IgG1, kappa, V domains shown)
VH: B4 VH with N28S, G30S, D33W, I52K, G53Q, H54T, D56G, T57V, F59H
VL: B1 VL
B13: antibody 1G8-1E10 (antibody, human IgG1, kappa, V domains shown)
VH: B9 VH with I28S, G30S, S31T, S53G, H54S, A56D, S57G, R58K
VL: B1 VL
B14: antibody 1F3-1F8 (antibody, human IgG1, kappa, V domains shown)
VH: B1 VH with Y30G, G50R, K52S, P53G, H54D, S55G, D56S, V57N, A58I, H59N
VL: B1 VL
B15: antibody 10F4-1C10 (antibody, human IgG1, kappa, V domains shown)
VH: B4 VH with D31S, S50G, I52K, G53T, H54Y, D56G, T57N, K58T, F59H
VL: B1 VL
B16: antibody 1G8-1C10 (antibody, human IgG1, kappa, V domains shown)
VH: EVQLVESGGGLVQPGGSLRLSCAASGFNFSDYSMSWVRQAPGKGLEWVSRIKASSGGSDYADSVKGRFTISRDNSKNTLYLQMNSLRAEDTAVYYCARQTEDRSYGYDLDYWGQGTLVTVSS
VL: B1 VL
B17: antibody 1F3-1F4 (antibody, human IgG1, kappa, V domains shown)
VH: EVQLVESGGGLVQPGGSLRLSCAASGDIFTGSSMSWVRQAPGKGLEWVSGIYASGSDKRYADSVKGRFTISRDNSKNTLYLQMNSLRAEDTAVYYCARAELLAFDVYTASDYWGQGTLVTVSS
VL: B1 VL
B18: antibody 1F3-1D12 (antibody, human IgG1, kappa, V domains shown)
VH: B17 VH with D27Y, I28N, G31D, S32Y, S33G, Y52S, A53G, S56D, D57N, R59Y
VL: B1 VL
B19: antibody 1F3-1C4 (antibody, human IgG1, kappa, V domains shown)
VH: B1 VH with N28T, Y30G, N31D, H54W, S55G, D56S, V57G, A58T, H59Y
VL: B1 VL
B20: antibody 1G8-2F11 (antibody, human IgG1, kappa, V domains shown)
VH: B2 VH with N28T, T30G, T31S, S32N, Y52S, Q53P, T57G, T58I, D59S
VL: B1 VL
B21: antibody 1G8-2H4 (antibody, human IgG1, kappa, V domains shown)
VH: B9 VH with I28S, G30T, S31G, R50A, S53G, H54S, A56G, R58T, D59Y
VL: B1 VL
B22: antibody 1G8-2H8 (antibody, human IgG1, kappa, V domains shown)
VH: B9 VH with R50A, S53G, H54S, A56G, R58T, D59Y
VL: B1 VL
B23: antibody 1F3-2D2 (antibody, human IgG1, kappa, V domains shown)
VH: B1 VH with Y30S, N31S, G50R, K52S, H54Y, S55T, D56G, V57T, A58T
VL: B1 VL
B24: antibody 10F4-1E1 (antibody, human IgG1, kappa, V domains shown)
VH: EVQLVESGGGLVQPGGSLRLSCAASGDIFGNYWMSWVRQAPGKGLEWVSSIDASSGNRFYADSVKGRFTISRDNSKNTLYLQMNSLRAEDTAVYYCAREYSDVVDYVSVRTPLDYWGQGTLVTVSS
VL: B1 VL
B25: antibody 10F4-1F1 (antibody, human IgG1, kappa, V domains shown)
VH: B24 VH with D27F, I28S, G30S, S50A, D52S, A53P, S54G, S55D, N57T, R58I
VL: B1 VL

Numbering of substitutions follows the chain as printed.

A word on the Kd: it is a measure of binding affinity in units of concentration. The term koff denotes the first-order rate constant of dissociation. For orientation: kon means a measure of how fast the partners come together. Low values mean slow association, high ones fast association. A word on the EC50: it is the concentration giving half of the maximal effect. Low values mean an effect from little substance, high ones a need for much substance.

The first test addresses T1, human Nectin-4 extracellular antigen …. Description: SPR, antibody on Protein A chip, 1:1 fit. The source says: In this study, the affinity of the antibodies for the human Nectin-4 extracellular antigen was detected by surface plasmon resonance (SPR) technique (BIAcore: GE Healthcare, T200).
Turning to B1, the Kd stood at 0.62 nM, the koff was 0.00105 s⁻¹ and the kon was determined as 1.69e+06 M⁻¹ s⁻¹.

On to B2, for which the Kd was found to be 1.98 nM, the koff is 0.00147 s⁻¹ and the kon came to 742000 M⁻¹ s⁻¹.

For the molecule B3, the Kd amounted to 1.87 nM, the koff turned out to be 0.00137 s⁻¹ and the kon came to 734000 M⁻¹ s⁻¹.

In the case of B4, the Kd amounted to 0.374 nM, the koff was 0.000145 s⁻¹ and the kon came to 389000 M⁻¹ s⁻¹.

B5: the Kd came out at 1.87 nM, the koff came out at 0.00142 s⁻¹ and the kon came out at 758000 M⁻¹ s⁻¹.

The molecule B6 showed a Kd of 3 nM, a koff of 0.00141 s⁻¹ and a kon of 471000 M⁻¹ s⁻¹.

B7 showed a Kd of 0.558 nM, a koff of 0.000237 s⁻¹ and a kon of 424000 M⁻¹ s⁻¹.

As to B8, the Kd was determined as 0.641 nM, the koff was 0.000994 s⁻¹ and the kon was 1.55e+06 M⁻¹ s⁻¹.

The molecule B9 came in with a Kd of 2.12 nM, a koff of 0.00166 s⁻¹ and a kon of 784000 M⁻¹ s⁻¹.

The molecule B10 registered a Kd of 0.552 nM, a koff of 0.00101 s⁻¹ and a kon of 1.82e+06 M⁻¹ s⁻¹.

B11 registered a Kd of 0.743 nM, a koff of 0.000596 s⁻¹ and a kon of 802000 M⁻¹ s⁻¹.

B12 showed a Kd of 0.589 nM, a koff of 0.000218 s⁻¹ and a kon of 370000 M⁻¹ s⁻¹.

B13 gave a Kd of 1.31 nM, a koff of 0.00087 s⁻¹ and a kon of 665000 M⁻¹ s⁻¹.

B14 gave an equilibrium dissociation constant (Kd) of 0.564 nM, a koff of 0.000966 s⁻¹ and a kon of 1.71e+06 M⁻¹ s⁻¹.

As for B15, binding was characterised by a dissociation constant (Kd) of 0.435 nM, the koff came out at 0.000116 s⁻¹ and the kon is 265000 M⁻¹ s⁻¹.

The next test shares this target. Description: ELISA, coated hNectin-4-His. The source says:
(§1) The binding activity of the antibodies was detected by ELISA.
On the technique in general: In an ELISA, binding on a coated surface is turned into a signal by an enzyme label.
Take B16: the EC50 came to 5 ng/mL.

Take B1: the EC50 was 8 ng/mL.

As to B2, a half-maximal effect (EC50) was put at 5 ng/mL.

B17: the EC50 is 9 ng/mL.

B3 registered an EC50 of 5 ng/mL.

B18: the EC50 was 7 ng/mL.

In the case of B19, the EC50 was determined as 11 ng/mL.

The molecule B5 gave a half-maximal effective concentration (EC50) of 6 ng/mL.

Regarding B20, the EC50 came to 4 ng/mL.

B6: the EC50 was determined as 4 ng/mL.

Take B21: the EC50 stood at 39 ng/mL.

As to B22, the EC50 was 5 ng/mL.

B8 displayed an EC50 of 7 ng/mL.

Turning to B9, the EC50 was determined as 12 ng/mL.

As to B10, the EC50 is 9 ng/mL.

B11 came in with an EC50 of 8 ng/mL.

B13: the concentration for a half-maximal effect (EC50) worked out at 6 ng/mL.

B14: the EC50 worked out at 8 ng/mL.

B23 came in with an EC50 of 15 ng/mL.

The target is the same in the next test. In words: ELISA, coated hNectin-4-His. This is another data set of the same source.
Text: as §1
In the case of B4, the EC50 stood at 0.068 µg/mL.

As to B7, a half-maximal response (EC50) required 0.054 µg/mL.

B24 showed an EC50 of 0.067 µg/mL.

In turn, B25 returned an EC50 of 0.057 µg/mL.

Regarding B12, the EC50 came out at 0.053 µg/mL.

Molecule B15 showed an EC50 of 0.058 µg/mL.

Values taken from patent US20260144882A1 (BIO THERA SOLUTIONS, published 2026).
